Experimental data reported in the supplement of paper PMC9876800.

System: peptide library, one residue held at a place counted from the S/T acceptor
Assay: relative phosphorylation of the sub-library (ratio to the mean residue at this position); higher = residue favoured
Details: human
In short: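 Purified recombinant kinases were reacted in 384-well plates with biotinylated degenerate peptide sub-libraries, each having one residue fixed at one position around a central Ser/Thr. The reaction mix contained 50 μM peptide plus 50 μM ATP spiked with γ-32P-ATP and ran for 90 min under kinase-specific conditions. Relative sub-library phosphorylation, taken from densitometry of phosphorimaged streptavidin membrane spots, is a ratio to the mean residue at that position.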

Sequence of NEK7, construct: Full length (Q8TDX7 whole entry, looked up): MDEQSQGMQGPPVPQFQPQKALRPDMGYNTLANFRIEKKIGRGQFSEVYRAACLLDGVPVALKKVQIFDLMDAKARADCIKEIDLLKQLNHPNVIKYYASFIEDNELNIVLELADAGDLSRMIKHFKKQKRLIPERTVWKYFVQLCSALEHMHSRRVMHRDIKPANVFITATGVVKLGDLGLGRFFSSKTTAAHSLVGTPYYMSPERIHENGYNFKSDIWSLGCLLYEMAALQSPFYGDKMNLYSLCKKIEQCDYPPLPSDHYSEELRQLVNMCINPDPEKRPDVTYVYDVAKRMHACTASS

With “NEK7, construct: Full length (from UniProt Q8TDX7)” the relative phosphorylation (A fixed, at +1) was 0.653, the relative phosphorylation (A fixed, at +2) was 1.05 and the relative phosphorylation (A fixed, at +3) was 0.923. It also gave a relative phosphorylation (A fixed, at +4) of 0.86, a relative phosphorylation (A fixed, at -1) of 1.05 and a relative phosphorylation (A fixed, at -2) of 1.12. For the same substance, the relative phosphorylation (A fixed, at -3) was 0.975, the relative phosphorylation (A fixed, at -4) was 1.02 and the relative phosphorylation (A fixed, at -5) was 1.07. The relative phosphorylation (D fixed, at +1) was 0.327, the relative phosphorylation (D fixed, at +2) was 0.61 and the relative phosphorylation (D fixed, at +3) was 0.66. It also gave a relative phosphorylation (D fixed, at +4) of 0.722, a relative phosphorylation (D fixed, at -1) of 1.29 and a relative phosphorylation (D fixed, at -2) of 2.31. It also gave a relative phosphorylation (D fixed, at -3) of 0.65, a relative phosphorylation (D fixed, at -4) of 1.91 and a relative phosphorylation (D fixed, at -5) of 1.83. The relative phosphorylation (E fixed, at +1) was 0.267, the relative phosphorylation (E fixed, at +2) was 0.376 and the relative phosphorylation (E fixed, at +3) was 0.597. For the same substance, the relative phosphorylation (E fixed, at +4) was 0.747, the relative phosphorylation (E fixed, at -1) was 1.42 and the relative phosphorylation (E fixed, at -2) was 1.8. It also gave a relative phosphorylation (E fixed, at -3) of 0.583, a relative phosphorylation (E fixed, at -4) of 1.28 and a relative phosphorylation (E fixed, at -5) of 1.43. For the same substance, the relative phosphorylation (F fixed, at +1) was 1.54, the relative phosphorylation (F fixed, at +2) was 0.717 and the relative phosphorylation (F fixed, at +3) was 1.21. For the same substance, the relative phosphorylation (F fixed, at +4) was 0.846, the relative phosphorylation (F fixed, at -1) was 0.646 and the relative phosphorylation (F fixed, at -2) was 0.87. For the same substance, the relative phosphorylation (F fixed, at -3) was 1.94, the relative phosphorylation (F fixed, at -4) was 0.839 and the relative phosphorylation (F fixed, at -5) was 0.989. The relative phosphorylation (G fixed, at +1) was 0.827, the relative phosphorylation (G fixed, at +2) was 1.12 and the relative phosphorylation (G fixed, at +3) was 1.28. For the same substance, the relative phosphorylation (G fixed, at +4) was 1.18, the relative phosphorylation (G fixed, at -1) was 0.713 and the relative phosphorylation (G fixed, at -2) was 1.4. For the same substance, the relative phosphorylation (G fixed, at -3) was 0.853, the relative phosphorylation (G fixed, at -4) was 1.05 and the relative phosphorylation (G fixed, at -5) was 0.972. It also gave a relative phosphorylation (H fixed, at +1) of 1.16, a relative phosphorylation (H fixed, at +2) of 1.38 and a relative phosphorylation (H fixed, at +3) of 1.21. It also gave a relative phosphorylation (H fixed, at +4) of 1.11, a relative phosphorylation (H fixed, at -1) of 1.12 and a relative phosphorylation (H fixed, at -2) of 1.3. For the same substance, the relative phosphorylation (H fixed, at -3) was 0.755, the relative phosphorylation (H fixed, at -4) was 1.03 and the relative phosphorylation (H fixed, at -5) was 1.06. The relative phosphorylation (I fixed, at +1) was 1.28, the relative phosphorylation (I fixed, at +2) was 0.812 and the relative phosphorylation (I fixed, at +3) was 0.957. The relative phosphorylation (I fixed, at +4) was 0.919, the relative phosphorylation (I fixed, at -1) was 0.569 and the relative phosphorylation (I fixed, at -2) was 0.433. The relative phosphorylation (I fixed, at -3) was 0.494, the relative phosphorylation (I fixed, at -4) was 0.647 and the relative phosphorylation (I fixed, at -5) was 0.831. The relative phosphorylation (K fixed, at +1) was 0.588, the relative phosphorylation (K fixed, at +2) was 1.47 and the relative phosphorylation (K fixed, at +3) was 1.24. For the same substance, the relative phosphorylation (K fixed, at +4) was 1.3, the relative phosphorylation (K fixed, at -1) was 1.34 and the relative phosphorylation (K fixed, at -2) was 0.625. It also gave a relative phosphorylation (K fixed, at -3) of 0.446, a relative phosphorylation (K fixed, at -4) of 0.82 and a relative phosphorylation (K fixed, at -5) of 0.842. For the same substance, the relative phosphorylation (L fixed, at +1) was 1.18, the relative phosphorylation (L fixed, at +2) was 0.549 and the relative phosphorylation (L fixed, at +3) was 1.1. For the same substance, the relative phosphorylation (L fixed, at +4) was 0.895, the relative phosphorylation (L fixed, at -1) was 1.02 and the relative phosphorylation (L fixed, at -2) was 0.718. For the same substance, the relative phosphorylation (L fixed, at -3) was 2.39, the relative phosphorylation (L fixed, at -4) was 0.832 and the relative phosphorylation (L fixed, at -5) was 0.771. For the same substance, the relative phosphorylation (M fixed, at +1) was 1.78, the relative phosphorylation (M fixed, at +2) was 0.693 and the relative phosphorylation (M fixed, at +3) was 0.899. It also gave a relative phosphorylation (M fixed, at +4) of 0.948, a relative phosphorylation (M fixed, at -1) of 1.03 and a relative phosphorylation (M fixed, at -2) of 0.973. For the same substance, the relative phosphorylation (M fixed, at -3) was 1.46, the relative phosphorylation (M fixed, at -4) was 0.823 and the relative phosphorylation (M fixed, at -5) was 0.703. The relative phosphorylation (N fixed, at +1) was 1, the relative phosphorylation (N fixed, at +2) was 1.63 and the relative phosphorylation (N fixed, at +3) was 0.833. For the same substance, the relative phosphorylation (N fixed, at +4) was 0.907, the relative phosphorylation (N fixed, at -1) was 1.22 and the relative phosphorylation (N fixed, at -2) was 1.47. It also gave a relative phosphorylation (N fixed, at -3) of 0.705, a relative phosphorylation (N fixed, at -4) of 1.35 and a relative phosphorylation (N fixed, at -5) of 1.15. The relative phosphorylation (P fixed, at +1) was 0.242, the relative phosphorylation (P fixed, at +2) was 0.691 and the relative phosphorylation (P fixed, at +3) was 0.703. For the same substance, the relative phosphorylation (P fixed, at +4) was 1.09, the relative phosphorylation (P fixed, at -1) was 0.234 and the relative phosphorylation (P fixed, at -2) was 0.356. The relative phosphorylation (P fixed, at -3) was 1.3, the relative phosphorylation (P fixed, at -4) was 0.918 and the relative phosphorylation (P fixed, at -5) was 0.886. It also gave a relative phosphorylation (Q fixed, at +1) of 1.33, a relative phosphorylation (Q fixed, at +2) of 0.933 and a relative phosphorylation (Q fixed, at +3) of 0.813. The relative phosphorylation (Q fixed, at +4) was 0.986, the relative phosphorylation (Q fixed, at -1) was 1.52 and the relative phosphorylation (Q fixed, at -2) was 0.951. The relative phosphorylation (Q fixed, at -3) was 0.628, the relative phosphorylation (Q fixed, at -4) was 0.889 and the relative phosphorylation (Q fixed, at -5) was 0.938. It also gave a relative phosphorylation (R fixed, at +1) of 0.865, a relative phosphorylation (R fixed, at +2) of 2.1 and a relative phosphorylation (R fixed, at +3) of 1.08. It also gave a relative phosphorylation (R fixed, at +4) of 1.16, a relative phosphorylation (R fixed, at -1) of 1.21 and a relative phosphorylation (R fixed, at -2) of 0.626. For the same substance, the relative phosphorylation (R fixed, at -3) was 0.652, the relative phosphorylation (R fixed, at -4) was 0.959 and the relative phosphorylation (R fixed, at -5) was 0.878. For the same substance, the relative phosphorylation (V fixed, at +1) was 1.05, the relative phosphorylation (V fixed, at +2) was 0.905 and the relative phosphorylation (V fixed, at +3) was 0.889. For the same substance, the relative phosphorylation (V fixed, at +4) was 0.846, the relative phosphorylation (V fixed, at -1) was 0.901 and the relative phosphorylation (V fixed, at -2) was 0.372. The relative phosphorylation (V fixed, at -3) was 0.538, the relative phosphorylation (V fixed, at -4) was 0.613 and the relative phosphorylation (V fixed, at -5) was 0.8. For the same substance, the relative phosphorylation (W fixed, at +1) was 1.47, the relative phosphorylation (W fixed, at +2) was 0.94 and the relative phosphorylation (W fixed, at +3) was 1.58. For the same substance, the relative phosphorylation (W fixed, at +4) was 1.46, the relative phosphorylation (W fixed, at -1) was 0.908 and the relative phosphorylation (W fixed, at -2) was 0.859. It also gave a relative phosphorylation (W fixed, at -3) of 1.4, a relative phosphorylation (W fixed, at -4) of 1.23 and a relative phosphorylation (W fixed, at -5) of 1.1. For the same substance, the relative phosphorylation (Y fixed, at +1) was 1.44, the relative phosphorylation (Y fixed, at +2) was 1.02 and the relative phosphorylation (Y fixed, at +3) was 1.02. It also gave a relative phosphorylation (Y fixed, at +4) of 1.02, a relative phosphorylation (Y fixed, at -1) of 0.796 and a relative phosphorylation (Y fixed, at -2) of 0.822. It also gave a relative phosphorylation (Y fixed, at -3) of 1.23, a relative phosphorylation (Y fixed, at -4) of 0.78 and a relative phosphorylation (Y fixed, at -5) of 0.754. The relative phosphorylation (pThr fixed, at +1) was 0.701, the relative phosphorylation (pThr fixed, at +2) was 0.607 and the relative phosphorylation (pThr fixed, at +3) was 0.62. It also gave a relative phosphorylation (pThr fixed, at +4) of 0.842, a relative phosphorylation (pThr fixed, at -1) of 0.624 and a relative phosphorylation (pThr fixed, at -2) of 1. It also gave a relative phosphorylation (pThr fixed, at -3) of 0.973, a relative phosphorylation (pThr fixed, at -4) of 1.15 and a relative phosphorylation (pThr fixed, at -5) of 0.979. For the same substance, the relative phosphorylation (pTyr fixed, at +1) was 0.816, the relative phosphorylation (pTyr fixed, at +2) was 0.62 and the relative phosphorylation (pTyr fixed, at +3) was 0.836. The relative phosphorylation (pTyr fixed, at +4) was 0.681, the relative phosphorylation (pTyr fixed, at -1) was 1.68 and the relative phosphorylation (pTyr fixed, at -2) was 1.6. The relative phosphorylation (pTyr fixed, at -3) was 1.12, the relative phosphorylation (pTyr fixed, at -4) was 0.861 and the relative phosphorylation (pTyr fixed, at -5) was 1.12.
